Patent publication US7074888B1, “Mimotopes and anti-mimotopes of human platelet glycoprotein Ib/IX” (The Research Foundation of State University of New York, priority 1995, dated 2006)
Ends that are not written are not given here.

The molecules below were run on formalin-fixed platelets (assay: not given). Conditions: not given.
Type: cell-based, human
Protocol: Citrated human platelet-rich plasma (PRP) was prepared by standard methods (Miller et al. 1983). For study of C-34 neutralization by mimotope peptide, 350 μL of PRP containing 150,000 platelets/μL was incubated for 10 min at 22° C. with phosphate-buffered saline (PBS), 20 μg/mL C-34 mab, or 20 μg/mL C-34 that had previously been incubated for 30 min at 22° C. with varying concentrations of peptides. The PRP was then brought to 37° C. and stirred at 1200 rpm in a Chrono-Log lumi-aggregometer (Chrono-Log Corporation, Havertown, Pa.). Aggregation was initiated by the addition of 1 mg/mL ristocetin (Helena Laboratories, Beaumont, Tex.). For screening of bacteriophage clones displaying potential anti-mimotope peptides, 150 μl of PEG/NaCl precipitated phage was incubated with 250 μl of citrated PRP for one hour at 22° C., transferred to the aggregometer, following which ristocetin was added at a final concentration of 0.8 mg/ml.
Further studies were undertaken with chemically synthesized peptide having SEQ ID NO:94: […]. This decapeptide was able to inhibit ristocetin-induced aggregation fully, with an IC50 occurring between 200–400 μg/mL (FIG. 9). […] In order to approximate more closely the native structure, peptides with an (Arg→Lys) substitution at position 7 were then studied. […] Whereas the […] Finally, both the wild-type GPIb alpha 228–237 peptide (SEQ ID NO:108) containing Gly at residue 233 and the PT-vWD variant with Val replacing Gly at this position (SEQ ID NO:107) were synthesized. […] Lyophilized peptides were reconstituted in PBS, pH 6.0 and 150 μL of varying dilutions incubated for 2–4 hr at 22° C. with 250 μL of formalin-fixed platelets ([…]), prior to aggregometry in which the addition of 1 U/mL purified vWF was followed by the addition of 0.9 mg/mL ristocetin.
YVWKQVVDVK [SEQ ID NO:107] was tested, and the “IC50 for inhibition of ristocetin-induced aggregation” value was “approximately 400 μg/mL”.

Same assay, conditions: by 715 μg/mL peptide, formalin-fixed platelets
In the case of “SEQ ID NO:104: RHVAWWRQGV decapeptide with a (Gly→Val) substitution at position 9, corresponding to the mutation observed in PT-vWD (RHVAWWRQVV)”, the “inhibition of ristocetin-induced aggregation” value is reported as “nearly full inhibition”.

Same assay, conditions: formalin-fixed platelets, 1 U/mL purified vWF, 0.9 mg/mL ristocetin
For RHVAWWKQGV [SEQ ID NO:106], the “inhibition of ristocetin-induced aggregation (extent, in words)” value (“inhibition … (extent, in words)” for short) was “unable to exert more than slight inhibition, except at the highest concentrations tested”. With YVWKQVVDVK [SEQ ID NO:107] the “inhibition … (extent, in words)” value was “fully inhibiting”. “SEQ ID NO:108: wild-type GPIb alpha 228–237 peptide containing Gly at residue 233 (YVWKQGVDVK)” was tested, and the “inhibition … (extent, in words)” value was “virtually without inhibitory activity”. RHVAWWKQVV [SEQ ID NO:105] was tested, and the “inhibition … (extent, in words)” value was “retained potent inhibitory activity”.

Biological target: T1, synthetic biotinylated peptide mimotope having SEQ ID NO:1 (not fully specified (N-terminus))
T1 construct: chemically synthesized (Genosys); also called biotinylated mimotope peptide
T1 peptide: AWNWRYREYV
Assay: phage biopanning on biotinylated mimotope peptide SEQ ID NO:1
Conditions: not given
Protocol: For studies directed towards discovering a peptide binding the mimotope peptide (SEQ ID NO:1: […]), two rounds of biopanning against the original decapeptide library were performed, using 1 µg of biotinylated mimotope peptide in the first round and 0.01 µg in the second round. Resulting yields were 3 ×10^-6% and 2 ×10^-3%, respectively.
RHRHRGFQPR [anti-mimotope clone SEQ ID NO:161]: binds. RRSTWHWWHA [anti-mimotope clone SEQ ID NO:98]: binds. RHVAWWRQGV [anti-mimotope clone SEQ ID NO:94]: binds. AKHRWWRRPV [anti-mimotope clone SEQ ID NO:95]: binds. RWLWPRVHKT [anti-mimotope clone SEQ ID NO:170]: binds. AGLNHWWKHK [anti-mimotope clone SEQ ID NO:97]: binds. GTWDLWRKGS [anti-mimotope clone SEQ ID NO:169]: binds. LSCRGCRAFV [anti-mimotope clone SEQ ID NO:166]: binds. VAKWRHWNRQ [anti-mimotope clone SEQ ID NO:99]: binds. SVRHIWFHVK [anti-mimotope clone SEQ ID NO:168]: binds. HSPFRHVQPR [anti-mimotope clone SEQ ID NO:171]: binds. KHFMRHRHGV [anti-mimotope clone SEQ ID NO:96]: binds. LLLVGGSELT [anti-mimotope clone SEQ ID NO:164]: binds. HEGCEAQDEL [anti-mimotope clone SEQ ID NO:167]: binds. KRHAWMKSRL [anti-mimotope clone SEQ ID NO:163]: binds. RGWRWHKYWQ [anti-mimotope clone SEQ ID NO:162]: binds. WHWLARHRTV [anti-mimotope clone SEQ ID NO:160]: binds. WVRGHHREVR [anti-mimotope clone SEQ ID NO:172]: binds. KKWGQHRQRS [anti-mimotope clone SEQ ID NO:158]: binds. WRWMHWMPHA [anti-mimotope clone SEQ ID NO:159]: binds. KKVWMFSYNE [anti-mimotope clone SEQ ID NO:165]: binds.

Each molecule was assayed against monoclonal antibody C-34 (assay: clone count after phage biopanning on biotinylated C-34). Conditions: not given.
Work on EGSWRYRKGG [C34 Clone SEQ ID NO:7] yielded a Frequency of 1. In the case of TMWVELYSLK [C34 Clone SEQ ID NO:20], the Frequency is reported as 1. For FVDPGRAGRG [C34 Clone SEQ ID NO:21], the Frequency was 1. Work on FKWREWRGKL [C34 Clone SEQ ID NO:11] yielded a Frequency of 1. Work on AWNWRYREYV [C34 Clone SEQ ID NO:1] yielded a Frequency of 52. In the case of GGVCKCWQCL [C34 Clone SEQ ID NO:16], the Frequency is reported as 1. KRAWWKQKWV [C34 Clone SEQ ID NO:66] gave a Frequency of 1. Molecule MNWKHWRARH [C34 Clone SEQ ID NO:10] has a Frequency of 1. WRQREYWDPV [C34 Clone SEQ ID NO:6] showed a Frequency of 1. Molecule MHGHRRPGLA [C34 Clone SEQ ID NO:18] has a Frequency of 1. Molecule GYHWWRNWEY [C34 Clone SEQ ID NO:8] has a Frequency of 2. MSKKPHLGLR [C34 Clone SEQ ID NO:19] gave a Frequency of 1. Molecule YLGWRYSEYV [C34 Clone SEQ ID NO:4] has a Frequency of 7. With PDRQVRLWVR [C34 Clone SEQ ID NO:12] the Frequency was 1. Work on KWNWRNKKYV [C34 Clone SEQ ID NO:2] yielded a Frequency of 1. RVLRHWHPRT [C34 Clone SEQ ID NO:13] gave a Frequency of 1. KKGRHHVTRV [C34 Clone SEQ ID NO:15] was tested, and the Frequency was 22. In the case of FSHSYGSAIR [C34 Clone SEQ ID NO:17], the Frequency is reported as 1. With GRRVWMLNHG [C34 Clone SEQ ID NO:14] the Frequency was 2. KGFLWRARNW [C34 Clone SEQ ID NO:9] gave a Frequency of 1. Work on TQMWRAREYL [C34 Clone SEQ ID NO:5] yielded a Frequency of 2. In the case of LSTWRYFEYV [C34 Clone SEQ ID NO:3], the Frequency is reported as 14.
